From IntAct's records for PubMed 31515488

B1: WASH complex subunit 3 (Homo sapiens), Q9Y3C0 (parent)
chain: MDEDGLPLMGSGIDLTKVPAIQQKRTVAFLNQFVVHTVQFLNRFSTVCEEKLADLSLRIQQIETTLNILDAKLSSIPGLDDVTVEVSPLNVTSVTNGAHPEATSEQPQQNSTQDSGLQESEVSAENILTVAKDPRYARYLKMVQVGVPVMAIRNKMISEGLDPDLLERPDAPVPDGESEKTVEESSDSESSFSD
partner: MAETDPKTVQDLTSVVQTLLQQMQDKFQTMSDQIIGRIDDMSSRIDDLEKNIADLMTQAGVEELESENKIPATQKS
B2: Protein LDOC1 (Homo sapiens), O95751 (parent)
chain: MVDELVLLLHALLMRHRALSIENSQLMEQLRLLVCERASLLRQVRPPSCPVPFPETFNGESSRLPEFIVQTASYMLVNENRFCNDAMKVAFLISLLTGEAEEWVVPYIEMDSPILGDYRAFLDEMKQCFGWDDDEDDDDEEEEDDY
partner: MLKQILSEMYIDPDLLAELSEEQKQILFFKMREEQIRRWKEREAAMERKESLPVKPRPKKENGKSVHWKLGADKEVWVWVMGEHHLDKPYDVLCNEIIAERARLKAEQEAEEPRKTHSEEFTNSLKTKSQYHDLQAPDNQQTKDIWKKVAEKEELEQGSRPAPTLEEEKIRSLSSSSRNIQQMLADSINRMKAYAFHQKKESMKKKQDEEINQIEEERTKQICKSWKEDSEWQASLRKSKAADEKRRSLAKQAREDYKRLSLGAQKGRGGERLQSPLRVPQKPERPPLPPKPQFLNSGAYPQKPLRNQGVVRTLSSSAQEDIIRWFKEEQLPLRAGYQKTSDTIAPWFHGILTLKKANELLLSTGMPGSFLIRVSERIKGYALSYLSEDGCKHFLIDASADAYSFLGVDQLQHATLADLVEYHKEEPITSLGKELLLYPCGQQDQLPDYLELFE
B3: Fas-activated serine/threonine kinase (Homo sapiens), Q14296-1 (parent)
chain: MRRPRGEPGPRAPRPTEGATCAGPGESWSPSPNSMLRVLLSAQTSPARLSGLLLIPPVQPCCLGPSKWGDRPVGGGPSAGPVQGLQRLLEQAKSPGELLRWLGQNPSKVRAHHYSVALRRLGQLLGSRPRPPPVEQVTLQDLSQLIIRNCPSFDIHTIHVCLHLAVLLGFPSDGPLVCALEQERRLRLPPKPPPPLQPLLRGGQGLEAALSCPRFLRYPRQHLISSLAEARPEELTPHVMVLLAQHLARHRLREPQLLEAIAHFLVVQETQLSSKVVQKLVLPFGRLNYLPLEQQFMPCLERILAREAGVAPLATVNILMSLCQLRCLPFRALHFVFSPGFINYISGTPHALIVRRYLSLLDTAVELELPGYRGPRLPRRQQVPIFPQPLITDRARCKYSHKDIVAEGLRQLLGEEKYRQDLTVPPGYCTDFLLCASSSGAVLPVRTQDPFLPYPPRSCPQGQAASSATTRDPAQRVVLVLRERWHFCRDGRVLLGSRALRERHLGLMGYQLLPLPFEELESQRGLPQLKSYLRQKLQALGLRWGPEGG
B4: Tyrosine aminotransferase (Homo sapiens), P17735 (parent)
chain: MDPYMIQMSSKGNLPSILDVHVNVGGRSSVPGKMKGRKARWSVRPSDMAKKTFNPIRAIVDNMKVKPNPNKTMISLSIGDPTVFGNLPTDPEVTQAMKDALDSGKYNGYAPSIGFLSSREEIASYYHCPEAPLEAKDVILTSGCSQAIDLCLAVLANPGQNILVPRPGFSLYKTLAESMGIEVKLYNLLPEKSWEIDLKQLEYLIDEKTACLIVNNPSNPCGSVFSKRHLQKILAVAARQCVPILADEIYGDMVFSDCKYEPLATLSTDVPILSCGGLAKRWLVPGWRLGWILIHDRRDIFGNEIRDGLVKLSQRILGPCTIVQGALKSILCRTPGEFYHNTLSFLKSNADLCYGALAAIPGLRPVRPSGAMYLMVGIEMEHFPEFENDVEFTERLVAEQSVHCLPATCFEYPNFIRVVITVPEVMMLEACSRIQEFCEQHYHCAEGSQEECDK
B5: Histone-lysine N-methyltransferase SMYD1 (Homo sapiens), Q8NB12 (parent)
chain: MTIGRMENVEVFTAEGKGRGLKATKEFWAADIIFAERAYSAVVFDSLVNFVCHTCFKRQEKLHRCGQCKFAHYCDRTCQKDAWLNHKNECSAIKRYGKVPNENIRLAARIMWRVEREGTGLTEGCLVSVDDLQNHVEHFGEEEQKDLRVDVDTFLQYWPPQSQQFSMQYISHIFGVINCNGFTLSDQRGLQAVGVGIFPNLGLVNHDCWPNCTVIFNNGNHEAVKSMFHTQMRIELRALGKISEGEELTVSYIDFLNVSEERKRQLKKQYYFDCTCEHCQKKLKDDLFLGVKDNPKPSQEVVKEMIQFSKDTLEKIDKARSEGLYHEVVKLCRECLEKQEPVFADTNIYMLRMLSIVSEVLSYLQAFEEASFYARRMVDGYMKLYHPNNAQLGMAVMRAGLTNWHAGNIEVGHGMICKAYAILLVTHGPSHPITKDLEAMRVQTEMELRMFRQNEFMYYKMREAALNNQPMQVMAEPSNEPSPALFHKKQ
partner: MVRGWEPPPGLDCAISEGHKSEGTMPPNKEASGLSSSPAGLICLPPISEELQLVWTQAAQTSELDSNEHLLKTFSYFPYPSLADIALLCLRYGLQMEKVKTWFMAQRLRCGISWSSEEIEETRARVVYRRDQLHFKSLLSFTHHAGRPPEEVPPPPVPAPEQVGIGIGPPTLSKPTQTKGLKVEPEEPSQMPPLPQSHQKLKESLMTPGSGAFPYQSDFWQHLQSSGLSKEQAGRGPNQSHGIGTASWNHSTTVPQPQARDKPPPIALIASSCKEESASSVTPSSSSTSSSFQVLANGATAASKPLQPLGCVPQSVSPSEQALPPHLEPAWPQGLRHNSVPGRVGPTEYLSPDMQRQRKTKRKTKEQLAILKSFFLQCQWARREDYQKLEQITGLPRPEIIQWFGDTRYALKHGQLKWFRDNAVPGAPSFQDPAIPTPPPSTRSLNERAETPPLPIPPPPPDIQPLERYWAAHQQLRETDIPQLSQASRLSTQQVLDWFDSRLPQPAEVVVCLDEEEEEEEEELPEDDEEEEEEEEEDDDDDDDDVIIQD

Variants of: B1
Conditions: with hsbp1_human HSBP1, O75506

| Variant | effect of a mutation on the interaction |
| --- | --- |
| F44L | with no effect |

Variants of: B2
Conditions: with sh24a_human SH2D4A

| Variant | effect of a mutation on the interaction |
| --- | --- |
| L12H | disrupting interaction strength |

Variants of: B3
Conditions: with wipf1_human WIPF1, O43516
wipf1_human WIPF1, O43516, sequence (O43516 whole entry): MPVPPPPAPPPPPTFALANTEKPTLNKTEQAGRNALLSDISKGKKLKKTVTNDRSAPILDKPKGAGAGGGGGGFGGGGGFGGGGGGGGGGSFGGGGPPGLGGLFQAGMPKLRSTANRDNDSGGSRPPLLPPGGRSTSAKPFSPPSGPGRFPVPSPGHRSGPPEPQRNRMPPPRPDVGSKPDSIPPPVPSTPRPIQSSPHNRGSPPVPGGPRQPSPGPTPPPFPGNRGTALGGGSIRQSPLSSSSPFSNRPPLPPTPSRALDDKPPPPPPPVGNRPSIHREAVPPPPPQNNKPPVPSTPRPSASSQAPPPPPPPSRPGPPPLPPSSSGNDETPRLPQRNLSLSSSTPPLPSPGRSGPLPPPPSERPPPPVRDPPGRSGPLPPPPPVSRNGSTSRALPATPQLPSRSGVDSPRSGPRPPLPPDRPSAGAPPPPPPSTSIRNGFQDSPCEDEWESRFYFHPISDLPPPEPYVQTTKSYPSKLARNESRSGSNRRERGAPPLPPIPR

| Variant | effect of a mutation on the interaction |
| --- | --- |
| V424L | disrupting interaction strength |

Variants of: B3
Conditions: with mdfi_human MDFI

| Variant | effect of a mutation on the interaction |
| --- | --- |
| V424L | disrupting interaction strength |

Variants of: B4
Conditions: with ube3a_human UBE3A

| Variant | effect of a mutation on the interaction |
| --- | --- |
| R119W | disrupting interaction strength |

Variants of: B5
Conditions: with homez_human HOMEZ

| Variant | effect of a mutation on the interaction |
| --- | --- |
| R441W | with no effect |
